Molecular target: T1, CD3 epsilon homodimer protein (UniProt P07766 23-126)
T1 construct: also called CD3 (CD3 epsilon)
Experiment: SPR, CD3 epsilon homodimer on chip, one-arm antibody as analyte;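 further: surface plasmon resonance at 25 °C with CD3 epsilon homodimer amine-coupled to a CM4 sensor chip, antibody injected as analyte, HBS-EP+ as running buffer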
Method: An appropriate amount of CD3 epsilon homodimer protein was immobilized onto Sensor chip CM4 (GE Healthcare Japan Corp.) by the amine coupling method. Then, the antibody having an appropriate concentration was injected thereto as an analyte and allowed to interact with the CD3 epsilon homodimer protein on the sensor chip. Then, the sensor chip was regenerated by the injection of 10 mmol/L glycine-HCl (pH 1.5). The assay was conducted at 25 degrees C., and HBS-EP+(GE Healthcare Japan Corp.) was used as a running buffer. […] Each parameter was calculated using Biacore T200 Evaluation Software (GE Healthcare Japan Corp.).

T1 sequence (P07766 23-126): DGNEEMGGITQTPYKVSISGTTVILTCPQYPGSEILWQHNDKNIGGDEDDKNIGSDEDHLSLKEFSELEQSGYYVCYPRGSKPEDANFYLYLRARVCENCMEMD

KD ratio (KD of CE115HA000/KD of altered form)	Binder
0.93	CE115HA000 T28D (antibody, human IgG1, kappa, L234A L235A, N297A, name in Kabat numbering, one-arm antibody) heavy: QVQLVESGGGVVQPGRSLRLSCAASGFDFSNAWMHWVRQAPGKGLEWVAQIKAKSNNYATYYAESVKGRFTISRDDSKNSLYLQMNSLKTEDTAVYYCRYVHYGAYYGVDAWGQGTTVTVSSASTKGPSVFPLAPSSKSTSGGTAALGCLVKDYFPEPVTVSWNSGALTSGVHTFPAVLQSSGLYSLSSVVTVPSSSLGTQTYICNVNHKPSNTKVDKKVEPKSCDKTHTCPPCPAPEAAGGPSVFLFPPKPKDTLMISRTPEVTCVVVDVSHEDPEVKFNWYVDGVEVHNAKTKPREEQYASTYRVVSVLTVLHQDWLNGKEYKCKVSNKALPAPIEKTISKAKGQPREPQVYTLPPSRCELTKNQVSLSCAVKGFYPSDIAVEWESNGQPENNYKTTPPVLDSDGSFFLVSKLTVDKSRWQQGNVFSCSVMHEALHNHYTQKSLSLSPDYKDDDDK EPKSSDKTHTCPPCPAPELLGGPSVFLFPPKPKDTLMISRTPEVTCVVVDVSHEDPEVKFNWYVDGVEVHNAKTKPREEQYNSTYRVVSVLTVLHQDWLNGKEYKCKVSNKALPAPIEKTISKAKGQPREPQVCTLPPSRDELTKNQVSLWCLVKGFYPSDIAVEWESNGQPENNYKTTPPVLDSDGSFFLYSKLTVDKSRWQQGNVFSCSVMHEALHNRYTQKSLSLSP light: DIVMTQSPLSLPVTPGEPASISCRSSQSLVHSNRNTYLHWYQQKPGQAPRLLIYKVSNRFSGVPDRFSGSGSGTDFTLKISRVEAEDVGVYYCGQGTQVPYTFGQGTKLEIKRTVAAPSVFIFPPSDEQLKSGTASVVCLLNNFYPREAKVQWKVDNALQSGNSQESVTEQDSKDSTYSLSSTLTLSKADYEKHKVYACEVTHQGLSSPVTKSFNRGEC
1.22	CE115HA000 T57K (antibody, human IgG1, kappa, L234A L235A, N297A, name in Kabat numbering, one-arm antibody) heavy: QVQLVESGGGVVQPGRSLRLSCAASGFTFSNAWMHWVRQAPGKGLEWVAQIKAKSNNYAKYYAESVKGRFTISRDDSKNSLYLQMNSLKTEDTAVYYCRYVHYGAYYGVDAWGQGTTVTVSSASTKGPSVFPLAPSSKSTSGGTAALGCLVKDYFPEPVTVSWNSGALTSGVHTFPAVLQSSGLYSLSSVVTVPSSSLGTQTYICNVNHKPSNTKVDKKVEPKSCDKTHTCPPCPAPEAAGGPSVFLFPPKPKDTLMISRTPEVTCVVVDVSHEDPEVKFNWYVDGVEVHNAKTKPREEQYASTYRVVSVLTVLHQDWLNGKEYKCKVSNKALPAPIEKTISKAKGQPREPQVYTLPPSRCELTKNQVSLSCAVKGFYPSDIAVEWESNGQPENNYKTTPPVLDSDGSFFLVSKLTVDKSRWQQGNVFSCSVMHEALHNHYTQKSLSLSPDYKDDDDK EPKSSDKTHTCPPCPAPELLGGPSVFLFPPKPKDTLMISRTPEVTCVVVDVSHEDPEVKFNWYVDGVEVHNAKTKPREEQYNSTYRVVSVLTVLHQDWLNGKEYKCKVSNKALPAPIEKTISKAKGQPREPQVCTLPPSRDELTKNQVSLWCLVKGFYPSDIAVEWESNGQPENNYKTTPPVLDSDGSFFLYSKLTVDKSRWQQGNVFSCSVMHEALHNRYTQKSLSLSP light: DIVMTQSPLSLPVTPGEPASISCRSSQSLVHSNRNTYLHWYQQKPGQAPRLLIYKVSNRFSGVPDRFSGSGSGTDFTLKISRVEAEDVGVYYCGQGTQVPYTFGQGTKLEIKRTVAAPSVFIFPPSDEQLKSGTASVVCLLNNFYPREAKVQWKVDNALQSGNSQESVTEQDSKDSTYSLSSTLTLSKADYEKHKVYACEVTHQGLSSPVTKSFNRGEC
0.87	CE115HA000 T57A (antibody, human IgG1, kappa, L234A L235A, N297A, name in Kabat numbering, one-arm antibody) heavy: QVQLVESGGGVVQPGRSLRLSCAASGFTFSNAWMHWVRQAPGKGLEWVAQIKAKSNNYAAYYAESVKGRFTISRDDSKNSLYLQMNSLKTEDTAVYYCRYVHYGAYYGVDAWGQGTTVTVSSASTKGPSVFPLAPSSKSTSGGTAALGCLVKDYFPEPVTVSWNSGALTSGVHTFPAVLQSSGLYSLSSVVTVPSSSLGTQTYICNVNHKPSNTKVDKKVEPKSCDKTHTCPPCPAPEAAGGPSVFLFPPKPKDTLMISRTPEVTCVVVDVSHEDPEVKFNWYVDGVEVHNAKTKPREEQYASTYRVVSVLTVLHQDWLNGKEYKCKVSNKALPAPIEKTISKAKGQPREPQVYTLPPSRCELTKNQVSLSCAVKGFYPSDIAVEWESNGQPENNYKTTPPVLDSDGSFFLVSKLTVDKSRWQQGNVFSCSVMHEALHNHYTQKSLSLSPDYKDDDDK EPKSSDKTHTCPPCPAPELLGGPSVFLFPPKPKDTLMISRTPEVTCVVVDVSHEDPEVKFNWYVDGVEVHNAKTKPREEQYNSTYRVVSVLTVLHQDWLNGKEYKCKVSNKALPAPIEKTISKAKGQPREPQVCTLPPSRDELTKNQVSLWCLVKGFYPSDIAVEWESNGQPENNYKTTPPVLDSDGSFFLYSKLTVDKSRWQQGNVFSCSVMHEALHNRYTQKSLSLSP light: DIVMTQSPLSLPVTPGEPASISCRSSQSLVHSNRNTYLHWYQQKPGQAPRLLIYKVSNRFSGVPDRFSGSGSGTDFTLKISRVEAEDVGVYYCGQGTQVPYTFGQGTKLEIKRTVAAPSVFIFPPSDEQLKSGTASVVCLLNNFYPREAKVQWKVDNALQSGNSQESVTEQDSKDSTYSLSSTLTLSKADYEKHKVYACEVTHQGLSSPVTKSFNRGEC
0.79	CE115HA000 T28S (antibody, human IgG1, kappa, L234A L235A, N297A, name in Kabat numbering, one-arm antibody) heavy: QVQLVESGGGVVQPGRSLRLSCAASGFSFSNAWMHWVRQAPGKGLEWVAQIKAKSNNYATYYAESVKGRFTISRDDSKNSLYLQMNSLKTEDTAVYYCRYVHYGAYYGVDAWGQGTTVTVSSASTKGPSVFPLAPSSKSTSGGTAALGCLVKDYFPEPVTVSWNSGALTSGVHTFPAVLQSSGLYSLSSVVTVPSSSLGTQTYICNVNHKPSNTKVDKKVEPKSCDKTHTCPPCPAPEAAGGPSVFLFPPKPKDTLMISRTPEVTCVVVDVSHEDPEVKFNWYVDGVEVHNAKTKPREEQYASTYRVVSVLTVLHQDWLNGKEYKCKVSNKALPAPIEKTISKAKGQPREPQVYTLPPSRCELTKNQVSLSCAVKGFYPSDIAVEWESNGQPENNYKTTPPVLDSDGSFFLVSKLTVDKSRWQQGNVFSCSVMHEALHNHYTQKSLSLSPDYKDDDDK EPKSSDKTHTCPPCPAPELLGGPSVFLFPPKPKDTLMISRTPEVTCVVVDVSHEDPEVKFNWYVDGVEVHNAKTKPREEQYNSTYRVVSVLTVLHQDWLNGKEYKCKVSNKALPAPIEKTISKAKGQPREPQVCTLPPSRDELTKNQVSLWCLVKGFYPSDIAVEWESNGQPENNYKTTPPVLDSDGSFFLYSKLTVDKSRWQQGNVFSCSVMHEALHNRYTQKSLSLSP light: DIVMTQSPLSLPVTPGEPASISCRSSQSLVHSNRNTYLHWYQQKPGQAPRLLIYKVSNRFSGVPDRFSGSGSGTDFTLKISRVEAEDVGVYYCGQGTQVPYTFGQGTKLEIKRTVAAPSVFIFPPSDEQLKSGTASVVCLLNNFYPREAKVQWKVDNALQSGNSQESVTEQDSKDSTYSLSSTLTLSKADYEKHKVYACEVTHQGLSSPVTKSFNRGEC
0.9	CE115HA000 T57N (antibody, human IgG1, kappa, L234A L235A, N297A, name in Kabat numbering, one-arm antibody) heavy: QVQLVESGGGVVQPGRSLRLSCAASGFTFSNAWMHWVRQAPGKGLEWVAQIKAKSNNYANYYAESVKGRFTISRDDSKNSLYLQMNSLKTEDTAVYYCRYVHYGAYYGVDAWGQGTTVTVSSASTKGPSVFPLAPSSKSTSGGTAALGCLVKDYFPEPVTVSWNSGALTSGVHTFPAVLQSSGLYSLSSVVTVPSSSLGTQTYICNVNHKPSNTKVDKKVEPKSCDKTHTCPPCPAPEAAGGPSVFLFPPKPKDTLMISRTPEVTCVVVDVSHEDPEVKFNWYVDGVEVHNAKTKPREEQYASTYRVVSVLTVLHQDWLNGKEYKCKVSNKALPAPIEKTISKAKGQPREPQVYTLPPSRCELTKNQVSLSCAVKGFYPSDIAVEWESNGQPENNYKTTPPVLDSDGSFFLVSKLTVDKSRWQQGNVFSCSVMHEALHNHYTQKSLSLSPDYKDDDDK EPKSSDKTHTCPPCPAPELLGGPSVFLFPPKPKDTLMISRTPEVTCVVVDVSHEDPEVKFNWYVDGVEVHNAKTKPREEQYNSTYRVVSVLTVLHQDWLNGKEYKCKVSNKALPAPIEKTISKAKGQPREPQVCTLPPSRDELTKNQVSLWCLVKGFYPSDIAVEWESNGQPENNYKTTPPVLDSDGSFFLYSKLTVDKSRWQQGNVFSCSVMHEALHNRYTQKSLSLSP light: DIVMTQSPLSLPVTPGEPASISCRSSQSLVHSNRNTYLHWYQQKPGQAPRLLIYKVSNRFSGVPDRFSGSGSGTDFTLKISRVEAEDVGVYYCGQGTQVPYTFGQGTKLEIKRTVAAPSVFIFPPSDEQLKSGTASVVCLLNNFYPREAKVQWKVDNALQSGNSQESVTEQDSKDSTYSLSSTLTLSKADYEKHKVYACEVTHQGLSSPVTKSFNRGEC
0.81	CE115HA000 T57I (antibody, human IgG1, kappa, L234A L235A, N297A, name in Kabat numbering, one-arm antibody) heavy: QVQLVESGGGVVQPGRSLRLSCAASGFTFSNAWMHWVRQAPGKGLEWVAQIKAKSNNYAIYYAESVKGRFTISRDDSKNSLYLQMNSLKTEDTAVYYCRYVHYGAYYGVDAWGQGTTVTVSSASTKGPSVFPLAPSSKSTSGGTAALGCLVKDYFPEPVTVSWNSGALTSGVHTFPAVLQSSGLYSLSSVVTVPSSSLGTQTYICNVNHKPSNTKVDKKVEPKSCDKTHTCPPCPAPEAAGGPSVFLFPPKPKDTLMISRTPEVTCVVVDVSHEDPEVKFNWYVDGVEVHNAKTKPREEQYASTYRVVSVLTVLHQDWLNGKEYKCKVSNKALPAPIEKTISKAKGQPREPQVYTLPPSRCELTKNQVSLSCAVKGFYPSDIAVEWESNGQPENNYKTTPPVLDSDGSFFLVSKLTVDKSRWQQGNVFSCSVMHEALHNHYTQKSLSLSPDYKDDDDK EPKSSDKTHTCPPCPAPELLGGPSVFLFPPKPKDTLMISRTPEVTCVVVDVSHEDPEVKFNWYVDGVEVHNAKTKPREEQYNSTYRVVSVLTVLHQDWLNGKEYKCKVSNKALPAPIEKTISKAKGQPREPQVCTLPPSRDELTKNQVSLWCLVKGFYPSDIAVEWESNGQPENNYKTTPPVLDSDGSFFLYSKLTVDKSRWQQGNVFSCSVMHEALHNRYTQKSLSLSP light: DIVMTQSPLSLPVTPGEPASISCRSSQSLVHSNRNTYLHWYQQKPGQAPRLLIYKVSNRFSGVPDRFSGSGSGTDFTLKISRVEAEDVGVYYCGQGTQVPYTFGQGTKLEIKRTVAAPSVFIFPPSDEQLKSGTASVVCLLNNFYPREAKVQWKVDNALQSGNSQESVTEQDSKDSTYSLSSTLTLSKADYEKHKVYACEVTHQGLSSPVTKSFNRGEC
